From PMC3589492, “Intersubunit Ionic Interactions Stabilize the Nucleoside Diphosphate Kinase of Mycobacterium tuberculosis” (PLoS ONE, 2013)

Target: the molecule itself
Assay: SEC; Superose 12 column, 50 mM Hepes pH 7.4, 150 mM sodium chloride, 0.4 mL/min, calibrated with molecular weight markers

B1: D93N mutant of the nucleoside diphosphate kinase of Mycobacterium tuberculosis (enzyme)
chain: MTERTLVLIKPDGIERQLIGEIISRIERKGLTIAALQLRTVSAELASQHYAEHEGKPFFGSLLEFITSGPVVAAIVEGTRAIAAVRQLAGGTNPVQAAAPGTIRGDFALETQFNLVHGSDSAESAQREIALWFPGA
notes: No tag is mentioned; also called D93N Mt-NDPK
stoichiometry N: 6
